This is an account of results in patent publication US20060240002A1, “Methods of inhibiting angiogenesis-dependent conditions mediated by cryptic epitopes of extracellular matrix components” (priority 2005, published 2006).

Assay [1] has as its system B16F10 tumor cells. Nature of the assay: Differential cDNA array analysis of B16F10 tumor cells treated with peptides (Example X). The class given is cell-based, murine. To be noted: 12 hours, Example X written in present tense. On the procedure:
To evaluate the effect of inhibiting the HUIV26 cryptic collagen epitope using the SLK- and CLK-Peptides, an Affymetrix™-based differential cDNA array analysis is performed using B16F10 tumor cells treated or not treated with SLK- or CLK-peptide. Non-tissue culture treated dishes are coated overnight with 100 μg/ml of denatured collagen IV in PBS. The next morning the plates are washed and incubated in blocking solution (1% BSA in PBS) for approximately 30 minutes. Tumor cells (7×10^6) are resuspended in serum free media and added to each plate in the presence or absence of CLK-Peptide, SLK-Peptide or a control peptide. The cells are allowed to incubate for a total of 12 hours.
Following the 12-hour incubation period, the cells are harvested and the RNA is isolated using both a TRIzol reagent and the Qiagen Rneasy Mini Protocol for RNA Cleanup. After RNA extraction, the amount and quality of RNA is quantified utilizing a spectrophotomer. 5-8 μg of total RNA is utilized to synthesize double-stranded cDNA. The first cDNA strand is obtained using a reaction mixture containing a T7-(dT)24 Primer, 1× First Strand Buffer, 0.1M DTT and 10 mM dNTP mix in addition to the extracted RNA. The tubes are incubated at 42° C. for approximately 1.5 hours. […]

The subject of assay [2] is B16F10 tumor cells. Description: Real time quantitative RT-PCR of B16F10 cells treated with peptides (Example X). In kind it is cell-based, murine. Particulars: vs control peptide, Example X written in present tense. The protocol: Relative expression levels of genes are assessed by both real time quantitative RT-PCR and Western Blot analysis. Tumor cells (B16F10) are allowed to interact with denatured collagen type-IV in the presence or absence of the SLK-peptide, CLK-peptide, or control peptide. Whole cell lysates are prepared from the various cell samples.
Real Time quantitative RT-PCR is carried out essentially as described with some modifications (Livak et al., Method 2001, 25:402-408). Total RNA is isolated using RNeasy miniprep columns (Qiagen, Valencia Calif.) according to the manufacturer's instructions. Total RNA (1 μg) is reverse transcribed using 1× Reverse Transcriptase Buffer, MgCl2 (3 mM), dNTP (2.0 mM), RNAse inhibitor (0.2 U/μl), random hexamer primers (0.5 mM), and MMLV reverse transcriptase (0.3 U/μl) in 20 μl reactions using a 3-step cycle (Promega, Madison, Wis.). Real-time fluorescence detection is carried out using an ABI Prism 7900 Sequence Detection System. Reactions are carried out in microAmp 96 well reaction plates. Primers and probes are designed using Primer 3 version 2 and ENSEMBL software (Promega).

Assay [3] concerns B16F10 tumor cells. Description: Western blot of B16F10 cells treated with peptides (Example X). The class given is cell-based, murine. Particulars: B16F10 cells on denatured collagen type-IV; vs no treatment or control peptide; Example X written in present tense. On the procedure: Western blot analyses indicate a corresponding increase in protein levels. Western blotting was performed as previously described, by coating non-tissue culture treated plates with denatured collagen type-IV (10.0 μg/ml). Equal numbers of tumor cells (B16F10) from sub-confluent cultures are harvested, washed and added to the coated plates in the presence or absence of SLK-peptide, CLK-peptide, or control peptide, and allowed to incubate in 1.0% serum-containing medium. Cells are harvested, washed, and lysed in 1.0% Triton X-100 buffer containing 300 mM NaCl, 50 mM Tris (pH 7.0) and 1× protease inhibitor cocktail. Equal amounts (25 μg/lane) of tumor cell lysates are separated by SDS Page and transferred to nitrocellulose membranes. Membranes are probed by incubation with either polyclonal antibodies directed to P21^CIP1 or Actin (Santa Cruz) as described previously (Brooks et al., Cell 1998, 92: 391-400; Petitclerc et al., Cancer Res. 1999, 59: 2724-2730). Western blots are visualized by a chemiluminesence detection system (Amersham Life Sciences).
In general terms: A western blot detects proteins with antibodies after separation by electrophoresis.

The target of assay [4] is denatured collagen type-IV. Description: cell-based or functional assay.
Assay [5] concerns P21^CIP1. Description: Western blot of P21^CIP1 in M21 cells. In kind it is cell-based, human. To be noted: 12 hours, 1% serum-containing medium. The protocol:
The effect of CLK-peptide on the expression of P21^CIP1 was examined by Western Blot analysis. M21 cells were resuspended in adhesion buffer in the presence or absence of CLK-peptide and allowed to incubate for 12 hours in 1% serum-containing medium. Total cell lysates were prepared and the levels of P21^CIP1 and actin analyzed by Western Blot analysis.

Assay [6] concerns P27^KIP1. Nature of the assay: Western blot of P27^KIP1 in B16F10 melanoma cells on denatured collagen. In kind it is cell-based, murine. To be noted: 24 hours. The protocol:
(§1) To examine the effect of CLK-peptide on the expression of cyclin-dependent […] P27^KIP1, B16F10 melanoma and GL261 glioblastoma cells were resuspended in adhesion buffer in the presence or absence of CLK-peptide or control peptide. Cells were added to culture plates coated with denatured collagen and allowed to incubate for 24 hours. Total cell lysates were prepared and the proteins analyzed by Western Blot analysis.

The test system of assay [7] is P27^KIP1. Nature of the assay: Western blot of P27^KIP1 in GL261 glioblastoma cells on denatured collagen. In kind it is cell-based. To be noted: 24 hours. On the procedure:
as §1

The target of assay [8] is αvβ3 integrin (human) (UniProt P06756). Description: cell-based or functional assay.
Chain of UniProt P06756 (P06756 31-1048, chain 1 of 2): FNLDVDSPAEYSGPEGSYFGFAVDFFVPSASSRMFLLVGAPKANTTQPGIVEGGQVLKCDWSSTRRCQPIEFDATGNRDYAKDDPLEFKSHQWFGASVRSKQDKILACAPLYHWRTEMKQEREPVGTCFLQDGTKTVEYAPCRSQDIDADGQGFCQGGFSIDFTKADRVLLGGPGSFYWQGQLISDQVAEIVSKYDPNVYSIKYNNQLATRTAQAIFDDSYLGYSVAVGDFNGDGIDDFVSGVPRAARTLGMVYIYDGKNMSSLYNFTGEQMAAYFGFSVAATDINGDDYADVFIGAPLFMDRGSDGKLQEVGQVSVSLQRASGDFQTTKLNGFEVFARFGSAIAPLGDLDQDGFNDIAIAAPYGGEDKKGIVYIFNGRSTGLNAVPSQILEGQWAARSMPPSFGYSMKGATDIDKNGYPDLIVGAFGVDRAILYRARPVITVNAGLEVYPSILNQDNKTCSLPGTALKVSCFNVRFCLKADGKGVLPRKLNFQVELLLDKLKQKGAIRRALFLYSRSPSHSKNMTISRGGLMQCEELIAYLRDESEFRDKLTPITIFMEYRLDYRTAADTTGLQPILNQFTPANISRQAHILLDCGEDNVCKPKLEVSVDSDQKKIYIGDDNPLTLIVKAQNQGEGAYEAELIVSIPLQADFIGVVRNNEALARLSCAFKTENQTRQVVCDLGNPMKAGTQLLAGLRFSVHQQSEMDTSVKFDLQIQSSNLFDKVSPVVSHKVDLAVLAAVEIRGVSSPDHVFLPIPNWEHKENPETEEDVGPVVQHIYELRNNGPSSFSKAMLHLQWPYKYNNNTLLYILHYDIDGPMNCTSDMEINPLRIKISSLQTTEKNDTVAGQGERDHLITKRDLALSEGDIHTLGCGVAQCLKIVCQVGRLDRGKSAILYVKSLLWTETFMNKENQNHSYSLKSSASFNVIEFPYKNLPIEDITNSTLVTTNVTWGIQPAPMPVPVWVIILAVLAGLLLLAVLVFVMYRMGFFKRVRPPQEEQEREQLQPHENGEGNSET
Chain of UniProt P06756 (P05106 27-788, chain 2 of 2, further chain): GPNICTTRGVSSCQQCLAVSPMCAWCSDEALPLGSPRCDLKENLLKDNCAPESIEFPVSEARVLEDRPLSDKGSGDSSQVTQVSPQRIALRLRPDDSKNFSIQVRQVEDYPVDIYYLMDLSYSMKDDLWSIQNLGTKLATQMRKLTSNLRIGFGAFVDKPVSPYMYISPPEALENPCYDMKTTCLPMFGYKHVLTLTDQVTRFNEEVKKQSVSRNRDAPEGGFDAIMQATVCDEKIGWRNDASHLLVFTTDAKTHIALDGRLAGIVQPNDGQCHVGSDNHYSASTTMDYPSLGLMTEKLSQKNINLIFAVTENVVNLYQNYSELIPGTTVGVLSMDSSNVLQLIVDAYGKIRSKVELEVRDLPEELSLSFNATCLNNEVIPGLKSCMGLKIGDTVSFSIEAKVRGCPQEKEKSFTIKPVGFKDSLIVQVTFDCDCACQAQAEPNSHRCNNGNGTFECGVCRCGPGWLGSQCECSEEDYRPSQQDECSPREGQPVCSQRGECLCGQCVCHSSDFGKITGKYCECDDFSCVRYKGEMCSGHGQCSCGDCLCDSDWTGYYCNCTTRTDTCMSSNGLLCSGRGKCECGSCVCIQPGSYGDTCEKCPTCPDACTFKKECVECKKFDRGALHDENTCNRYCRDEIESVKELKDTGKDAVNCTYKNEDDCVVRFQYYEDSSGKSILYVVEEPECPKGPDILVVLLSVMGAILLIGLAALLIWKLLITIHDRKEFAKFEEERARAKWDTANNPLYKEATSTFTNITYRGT

Regarding “NH2—S-L-K-Q-N-G-G-N—F—S-L-C—COOH (H-SLKQNGGNFSLC-OH) [SLK-peptide]”, in assay [1], the “expression of certain genes (cDNA array)” value is reported as “significant increase”. The “relative levels of certain RNAs (RT-PCR)” value in assay [2] is “significant increase in the relative levels of certain RNAs and significant decrease in other RNAs”. In addition, the “expression of certain proteins (Western blot)” value in assay [3] was “significant increase in expression of certain proteins and a significant decrease in expression of other proteins”.
In the case of Mab HUIV26 (antibody), in assay [4], the TSP-1 mRNA levels in HUVECs (real-time PCR) stood at 6 fold, the adhesion of B16F10 cells to denatured collagen type-IV is 50 % inhibition, the expression of P21^CIP1 protein in B16F10 cells (Western blot) worked out at 2 fold and the migration of B16F10 tumor cells on denatured collagen type-IV amounted to 50 % inhibition. In assay [4], this substance displayed a relative level of P21^CIP1 mRNA in B16F10 cells (real time RT-PCR) of 2.3 fold, a relative levels of IGFBP-4 RNA in M21 cells (RT-PCR) of 115 fold, a relative levels of IGFBP-4 mRNA in HUVECs (RT-PCR) of over 10 fold and a relative levels of Id-1 in M21 cells (real-time PCR) (fold decrease) of 2. Moreover, the relative levels of TSP-1 RNA in M21 cells (real-time PCR) in assay [4] was found to be 7 fold.
“NH2—C-L-K-Q-N-G-G-N—F—S-L-G-COOH (H-CLKQNGGNFSLG-OH) [CLK-peptide]”: in assay [5], the “expression of P21^CIP1 (Western blot)” value is on record as “significant upregulation”. Moreover, the “expression of P27^KIP1 (Western blot)” value in assay [6] and in assay [7] was “significant upregulation” in each case. For the same substance, the “expression of certain genes (cDNA array)” value in assay [1] is given as “significant increase”. In assay [2], the “relative levels of certain RNAs (RT-PCR)” value was “significant increase in the relative levels of certain RNAs and significant decrease in other RNAs”. Moreover, the “expression of certain proteins (Western blot)” value in assay [3] is “significant increase in expression of certain proteins and a significant decrease in expression of other proteins”.
In assay [4], Mab HUI77 (antibody) came in with a relative level of P21^CIP1 mRNA in HUVECs (real time RT-PCR) of 10 fold and a relative level of P27^KIP1 mRNA in HUVECs (real time RT-PCR) of over 5 fold.
Take Mab LM609 (antibody): in assay [8], the relative level of TSP-1 in M21 cells on denatured collagen type-IV (real-time PCR) stood at 8 fold.
